Literature values as cited in PMC10605242.

Assays:
[1] = target: C4b dimer (B isoform) (Homo sapiens) (UniProt P0C0L5)
[2] = target: C4b dimer (A isoform) (Homo sapiens) (UniProt P0C0L4)
C4b (Homo sapiens) = C4b (Homo sapiens) (UniProt P0C0L4)

Row | Kd [1] [nM] | Kd [2] [nM] | Kd (C4b (Homo sapiens)) [nM] | Substance
1 | 445 | 130 | – | CR1 (from UniProt P17927)
2 | – | – | 1200 | CR1 SCR15-18 (from UniProt P17927)
